# Measured values taken from article PMC10864410, “The pathogen-encoded signalling receptor Tir exploits host-like intrinsic disorder for infection” (Communications Biology, 2024).
# T1: C-terminal SH2 domain (C-SH2) of human phosphatase SHP-1, residues 101-217 (human, UniProt P29350 101-217)
# T1 chain: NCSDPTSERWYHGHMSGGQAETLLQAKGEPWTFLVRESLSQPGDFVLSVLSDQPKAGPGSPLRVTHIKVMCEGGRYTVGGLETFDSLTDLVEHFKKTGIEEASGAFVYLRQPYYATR
# T2: C-Tir, C-terminal cytosolic region of Tir of EPEC O127:H6, residues 388-550, unphosphorylated (Enteropathogenic E. coli (EPEC) O127:H6, UniProt B7UM99 388-550)
# T2 construct: Translocated intimin receptor Tir, EPEC O127:H6, residues 388-550; Trx-His6 tag cleaved on-column with HRV-3C protease; 15N-labelled for the NMR titration; also called unphosphorylated C-Tir; Tir C-terminus; source: E. coli BL21 Star (DE3) pLysS, lysed by boiling, purified (Strep-Tactin XT, Superdex 200); not shown: Trx, N-terminal, cleaved; His6, N-terminal, cleaved; Strep-tag, C-terminal, kept
# T2 sequence: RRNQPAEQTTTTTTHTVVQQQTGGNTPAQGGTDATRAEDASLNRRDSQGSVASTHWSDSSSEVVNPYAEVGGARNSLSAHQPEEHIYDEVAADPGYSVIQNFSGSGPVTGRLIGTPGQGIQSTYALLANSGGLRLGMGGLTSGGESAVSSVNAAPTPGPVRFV
# T3: pC-Tir, C-Tir (residues 388-550 of EPEC O127:H6 Tir) phosphorylated by Fyn at four tyrosines (Enteropathogenic E. coli (EPEC) O127:H6, UniProt B7UM99 388-550, phosphotyrosine at Y454, Y474, Y483 and Y511)
# T3 construct: Translocated intimin receptor Tir, EPEC O127:H6, residues 388-550; Same construct as m4, phosphorylated in vitro; 15N-labelled for the NMR titration; also called 4-fold phosphorylated state; phosphorylated C-Tir; not shown: Trx, N-terminal, cleaved; His6, N-terminal, cleaved; Strep-tag, C-terminal, kept
# T3 sequence: T2 sequence
# B1: NS-Tir, N-terminal structured region of Tir (N-Tir 61-200) of EPEC O127:H6 (domain or fragment)
# chain: VDSRDIPGLPTNPSRLAAATSETCLLGGFEVLHDKGPLDILNTQIGPSAFRVEVQADGTHAAIGEKNGLEVSVTLSPQEWSSLQSIDTEGKNRFVFTGGRGGSGHPMVTVASDIAEARTKILAKLDPDNHGGRQPKDVDT
# notes: Translocated intimin receptor Tir, EPEC O127:H6, residues 61-200; Trx-His6 tag cleaved in vivo by co-expressed TEV protease; source: E. coli BL21 Star (DE3) pLysS, purified (Strep-Tactin XT, Superdex 200); not shown: Trx, N-terminal, cleaved; His6, N-terminal, cleaved; Strep-tag, C-terminal, kept
# B2: N-Tir, N-terminal cytosolic region of the translocated intimin receptor (Tir) of EPEC O127:H6, residues 1-233 (domain or fragment)
# chain: MPIGNLGNNVNGNHLIPPAPPLPSQTDGAARGGTGHLISSTGALGSRSLFSPLRNSMADSVDSRDIPGLPTNPSRLAAATSETCLLGGFEVLHDKGPLDILNTQIGPSAFRVEVQADGTHAAIGEKNGLEVSVTLSPQEWSSLQSIDTEGKNRFVFTGGRGGSGHPMVTVASDIAEARTKILAKLDPDNHGGRQPKDVDTRSVGVGSASGIDDGVVSETHTSTTNSSVRSDPK
# notes: Translocated intimin receptor Tir, EPEC O127:H6, residues 1-233, from a synthetic E. coli codon-optimised gene of the full-length protein; Trx-His6 tag cleaved in vivo by co-expressed TEV protease; also called Tir's N-terminal tail; source: E. coli BL21 Star (DE3) pLysS, purified (Strep-Tactin XT, Superdex 200); not shown: Trx, N-terminal, cleaved; His6, N-terminal, cleaved; Strep-tag, …
# B3: pC-Tir, C-Tir (residues 388-550 of EPEC O127:H6 Tir) phosphorylated by Fyn at four tyrosines (domain or fragment)
# chain: T2 sequence
# modifications: phosphotyrosine at Y454, Y474, Y483 and Y511
# B4: C-terminal SH2 domain (C-SH2) of human phosphatase SHP-1, residues 101-217 (domain or fragment, UniProt P29350 101-217, looked up)
# chain: T1 chain
# notes: Tyrosine-protein phosphatase SHP-1, human, C-terminal SH2 domain, residues 101-217; PCR-amplified from the vector pGEX SHP-1(NC)-SH2; Trx-His6 tag cleaved on-column with HRV-3C protease; unlabelled in the NMR titrations; also called SHP-1 C-SH2 domain; source: E. coli BL21 Star (DE3) pLysS, purified (Strep-Tactin XT, Superdex 200); not shown: Trx, N-terminal, cleaved; His6, N-terminal, cleaved
# What was measured:
# [1] = biological target: the molecule itself; test: SEC-SAXS; synchrotron SEC-SAXS, B21 beamline, Shodex KW403-4F column; 100 mM Tris-HCl pH 8.0, 150 mM NaCl, 2 mM DTT, 1 mM EDTA; 50 uL of 10.0-25.0 mg/mL injected; dimeric single-peak region
# [2] = biological target: T1, C-terminal SH2 domain (C-SH2) of human …; test: NMR; site pY454, apparent
# [3] = biological target: T1, C-terminal SH2 domain (C-SH2) of human …; test: NMR; site pY474, apparent
# [4] = biological target: T1, C-terminal SH2 domain (C-SH2) of human …; test: NMR; site pY483, apparent
# [5] = biological target: T1, C-terminal SH2 domain (C-SH2) of human …; test: NMR; site pY511, apparent
# [6] = biological target: B3; test: NMR; site pY454 (apparent local Kd)
# [7] = biological target: B3; test: NMR; site pY474 (apparent local Kd)
# [8] = biological target: B3; test: NMR; site pY483 (apparent local Kd)
# [9] = biological target: B3; test: NMR; site pY511 (apparent local Kd)
# [10] = biological target: T2, C-Tir, C-terminal cytosolic region of …; test: NMR titration; unlabelled C-SH2 added to 15N-labelled unphosphorylated C-Tir (2.0 and 8.0 equivalents shown); [15N-1H]-HSQC peak intensities of A512-A515 fitted globally to a 1:1 model; apparent KD; conditions: both partners purified
# [11] = biological target: T3, pC-Tir, C-Tir (residues 388-550 of EPEC …); test: NMR titration; 15N-labelled pC-Tir (95 uM) titrated with 0.25, 0.5, 0.75, 1, 2, 4 and 6 equivalents of unlabelled C-SH2; [15N-1H]-HSQC peak intensities clustered by phosphorylation site and fitted globally to a 1:1 model; apparent KD for each site; conditions: both partners purified
binder,measurement,setting,value
B1,stoichiometry N,[1],2
B2,stoichiometry N,[1],2
B3,Kd,[2],86.1 µM
same,Kd,[3],2.66 µM
same,Kd,[4],9.25 µM
same,Kd,[5],6.94 µM
B4,Kd,[6],86.1 µM
same,Kd,[7],2.66 µM
same,Kd,[8],9.25 µM
same,Kd,[9],6.94 µM
same,Kd,[10],~68.5 µM
same,fold enhancement of binding at the Y511 site against unphosphorylated C-Tir,[11],~10 fold
